Drawing on PMC5458144 (2017), this text covers Kd for one molecule.

The target in the test is CRL4A-CRBN (Homo sapiens, UniProt Q96SW2). The experiment in a line: TR-FRET. (Time-resolved FRET reads energy transfer from a long-lived donor to a nearby acceptor.)
Sequence of CRL4A-CRBN (Q96SW2 whole entry, chain 1 of 4): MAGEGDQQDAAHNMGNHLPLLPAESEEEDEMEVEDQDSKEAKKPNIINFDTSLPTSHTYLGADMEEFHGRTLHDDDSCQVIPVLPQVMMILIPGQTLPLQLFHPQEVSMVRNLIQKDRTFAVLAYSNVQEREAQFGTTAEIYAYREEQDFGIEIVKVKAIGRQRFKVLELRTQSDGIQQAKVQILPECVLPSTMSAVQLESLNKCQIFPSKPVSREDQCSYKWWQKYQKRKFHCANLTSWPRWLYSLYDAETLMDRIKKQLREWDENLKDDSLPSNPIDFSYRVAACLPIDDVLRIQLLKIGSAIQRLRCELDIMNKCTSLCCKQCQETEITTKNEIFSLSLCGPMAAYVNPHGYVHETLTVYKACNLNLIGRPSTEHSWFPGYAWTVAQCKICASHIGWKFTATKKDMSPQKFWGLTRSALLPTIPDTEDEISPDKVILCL
Sequence of CRL4A-CRBN (Q16531 2-1140, chain 2 of 4, further chain): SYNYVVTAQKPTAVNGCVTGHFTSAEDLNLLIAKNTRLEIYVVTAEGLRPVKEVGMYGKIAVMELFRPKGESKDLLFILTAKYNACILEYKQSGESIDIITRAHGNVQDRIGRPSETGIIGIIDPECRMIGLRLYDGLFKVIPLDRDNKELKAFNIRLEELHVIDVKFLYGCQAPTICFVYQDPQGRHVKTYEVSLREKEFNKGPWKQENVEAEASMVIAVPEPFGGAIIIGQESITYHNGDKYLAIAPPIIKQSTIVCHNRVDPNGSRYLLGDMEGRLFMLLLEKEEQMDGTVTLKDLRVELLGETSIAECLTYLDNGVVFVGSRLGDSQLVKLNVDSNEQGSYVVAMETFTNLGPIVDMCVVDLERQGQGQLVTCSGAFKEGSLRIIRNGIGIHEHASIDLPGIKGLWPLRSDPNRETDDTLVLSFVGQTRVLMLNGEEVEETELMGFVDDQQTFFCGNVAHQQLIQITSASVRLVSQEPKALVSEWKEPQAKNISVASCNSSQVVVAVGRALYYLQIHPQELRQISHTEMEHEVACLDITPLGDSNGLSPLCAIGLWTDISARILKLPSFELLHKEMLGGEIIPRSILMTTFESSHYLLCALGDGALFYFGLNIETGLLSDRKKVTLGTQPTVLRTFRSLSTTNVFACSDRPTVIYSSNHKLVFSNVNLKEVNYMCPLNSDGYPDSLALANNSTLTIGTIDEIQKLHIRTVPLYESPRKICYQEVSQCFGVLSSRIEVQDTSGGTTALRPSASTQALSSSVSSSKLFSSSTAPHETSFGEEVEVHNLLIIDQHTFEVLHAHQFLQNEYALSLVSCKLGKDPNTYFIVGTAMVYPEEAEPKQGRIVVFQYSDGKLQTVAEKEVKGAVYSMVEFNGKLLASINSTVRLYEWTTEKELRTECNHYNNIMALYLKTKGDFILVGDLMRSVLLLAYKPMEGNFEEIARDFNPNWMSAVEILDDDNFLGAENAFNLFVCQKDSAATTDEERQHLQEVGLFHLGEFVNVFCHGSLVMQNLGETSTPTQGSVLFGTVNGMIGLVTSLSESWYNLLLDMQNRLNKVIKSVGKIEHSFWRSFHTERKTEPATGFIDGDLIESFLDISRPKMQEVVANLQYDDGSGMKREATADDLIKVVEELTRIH
Sequence of CRL4A-CRBN (Q13619 whole entry, chain 3 of 4, further chain): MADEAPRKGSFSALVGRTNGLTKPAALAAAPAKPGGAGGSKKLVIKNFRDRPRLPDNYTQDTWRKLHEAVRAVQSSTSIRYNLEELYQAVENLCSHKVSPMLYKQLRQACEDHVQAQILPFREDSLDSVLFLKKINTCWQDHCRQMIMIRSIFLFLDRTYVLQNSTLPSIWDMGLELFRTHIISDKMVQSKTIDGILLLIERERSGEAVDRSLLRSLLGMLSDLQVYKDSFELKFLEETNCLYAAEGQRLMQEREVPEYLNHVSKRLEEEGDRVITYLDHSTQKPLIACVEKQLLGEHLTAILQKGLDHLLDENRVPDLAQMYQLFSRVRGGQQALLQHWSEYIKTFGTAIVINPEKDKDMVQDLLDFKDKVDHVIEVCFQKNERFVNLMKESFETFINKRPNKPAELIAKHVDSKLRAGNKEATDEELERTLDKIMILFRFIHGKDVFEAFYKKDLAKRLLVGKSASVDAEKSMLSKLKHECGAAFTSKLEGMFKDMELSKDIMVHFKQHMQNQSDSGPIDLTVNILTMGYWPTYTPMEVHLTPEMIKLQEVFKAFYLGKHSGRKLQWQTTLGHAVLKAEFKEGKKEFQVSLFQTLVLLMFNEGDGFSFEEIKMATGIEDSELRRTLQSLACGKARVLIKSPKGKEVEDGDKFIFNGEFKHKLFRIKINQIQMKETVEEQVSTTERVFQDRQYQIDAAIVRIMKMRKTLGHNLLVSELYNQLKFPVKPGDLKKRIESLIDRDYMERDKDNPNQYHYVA
Sequence of CRL4A-CRBN (P62877 2-108, chain 4 of 4, further chain): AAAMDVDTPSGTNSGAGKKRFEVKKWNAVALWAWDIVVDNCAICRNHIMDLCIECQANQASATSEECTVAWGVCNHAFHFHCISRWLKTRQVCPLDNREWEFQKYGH

B1: ZFP91 (protein)
chain: PGETEEPRPPEQQDQEGGEAAKAAPEEPQQRPPEAVAAAPAGTTSSRVLRGGRDRGRAAAAAAAAAVSRRRKAEYPRRRRSSPSARPPDVPGQQPQAAKSPSPVQGKKSPRLLCIEKVTTDKDPKEEKEEEDDSALPQEVSIAASRPSRGWRSSRTSVSRHRDTENTRSSRSKTGSLQLICKSEPNTDQLDYDVGEEHQSPGGISSEEEEEEEEEMLISEEEIPFKDDPRDETYKPHLERETPKPRRKSGKVKEEKEKKEIKVEVEVEVKEEENEIREDEEPPRKRGRRRKDDKSPRLPKRRKKPPIQYVRCEMEGCGTVLAHPRYLQHHIKYQHLLKKKYVCPHPSCGRLFRLQKQLLRHAKHHTDQRDYICEYCARAFKSSHNLAVHRMIHTGEKPLQCEICGFTCRQKASLNWHMKKHDADSFYQFSCNICGKKFEKKDSVVAHKAKSHPEVLIAEALAANAGALITSTDILGTNPESLTQPSDGQGLPLLPEPLGNSTSGECLLLEAEGMSKSYCSGTERVSLMADGKIFVGSGSSGGTEGLVMNSDILGATTEVLIEDSDSAGP
modifications: lenalidomide
B1 came in with a Kd of 107 nM.

For orientation: Kd means the equilibrium constant for the complex coming apart.
